Where “and” joins values, the source holds several entries; their conditions need not be identical. Equal entries are not always repeated.

In general, stoichiometry N refers to the number of molecules, sites or subunits per partner or assembly.

The data set concerns the molecule itself. Briefly: SEC; preparative HiLoad 26/600 Superdex 200 column after glutathione affinity chromatography; tetramer V_elution about 170 mL.

B1: Plasmodium falciparum glutathione-S-transferase (enzyme, UniProt Q8ILQ7 1-211, looked up)
chain: MGDNIVLYYFDARGKAELIRLIFAYLGIEYTDKRFGVNGDAFVEFKNFKKEKDTPFEQVPILQIGDLILAQSQAIVRYLSKKYNICGESELNEFYADMIFCGVQDIHYKFNNTNLFKQNETTFLNEDLPKWSGYFEKLLKKNHTNNNNDKYYFVGNNLTYADLAVFNLYDDIETKYPSSLKNFPLLKAHNEFISNLPNIKNYITNRKESVY
notes: glutathione S-transferase of Plasmodium falciparum; recombinant; printed M.W. of the dimer ~56 kDa; Found as dimer and as tetramer; The dimer for crystallization was eluted with and stabilised by 10 mM S-(p-bromobenzyl)-GSH; The tetramer was labelled with Alexa Fluor 488 only after SEC and DLS; also called PfGST
As for B1, the “stoichiometry N” value is 2 and 4.

The values above are taken from paper PMC8854672, “Tracing transport of protein aggregates in microgravity versus unit gravity crystallization” (NPJ Microgravity, 2022).
